This is an account of results in US20250051821.

Series [1] deals with T1, IFF05588.
T1 chain: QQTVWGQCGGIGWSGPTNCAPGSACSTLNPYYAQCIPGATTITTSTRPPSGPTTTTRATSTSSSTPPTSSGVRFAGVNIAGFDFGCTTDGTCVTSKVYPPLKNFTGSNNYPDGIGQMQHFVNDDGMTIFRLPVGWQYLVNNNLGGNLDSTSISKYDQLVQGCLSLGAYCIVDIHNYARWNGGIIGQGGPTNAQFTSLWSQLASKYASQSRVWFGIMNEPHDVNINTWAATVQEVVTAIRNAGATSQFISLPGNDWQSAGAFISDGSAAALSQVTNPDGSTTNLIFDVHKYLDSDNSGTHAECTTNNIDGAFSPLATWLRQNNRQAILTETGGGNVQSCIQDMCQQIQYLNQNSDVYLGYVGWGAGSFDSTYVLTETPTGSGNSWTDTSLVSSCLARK

Series [2] addresses T2, IFF07399.
T2 chain: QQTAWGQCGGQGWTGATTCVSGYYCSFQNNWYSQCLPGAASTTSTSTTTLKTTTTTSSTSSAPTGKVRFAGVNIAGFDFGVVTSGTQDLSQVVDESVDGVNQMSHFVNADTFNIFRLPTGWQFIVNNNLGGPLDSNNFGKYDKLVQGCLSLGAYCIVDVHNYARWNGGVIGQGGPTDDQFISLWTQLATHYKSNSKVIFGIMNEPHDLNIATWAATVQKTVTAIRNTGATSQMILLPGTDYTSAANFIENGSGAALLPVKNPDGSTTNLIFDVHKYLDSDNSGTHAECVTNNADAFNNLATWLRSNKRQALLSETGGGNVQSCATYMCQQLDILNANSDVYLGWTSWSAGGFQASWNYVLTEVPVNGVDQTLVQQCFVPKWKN

B1: IFF21374 (protein)
chain: QRLNKPALTPNLDYLEQGNIDNLHPTHSTWDKWGPGWIPADCKSIAQNEGKNPDDFEIYNVHYDDCSDAWVFCRHKDSNVDLVTTIDIFGRLPVKMRSWVRHVITIPGDSWAYNSNGNIAFFGTTSSSMDVAIHETGHSLDLLGAYWGKTFSDSSTWLDNYNQDPNVPDEYAQTNQVENVAQNTVVGVYDKVVPGGFGSVQPNWHNIFHQYATLQWGAGDQIIPGGTCDRHLQNSETVPTGNSALAFNAVNRPDTSLKGNYSNIVTDFKEFSTRGNCRI
Protein B1 returned a Relative late peak area (reverse phase chromatography, 24 h) in series [1] of 0.51. In addition, the “Gel mobility change (SDS-PAGE)” value in series [2] is given as “yes”.

B2: IFF21370 (protein)
chain: DDTPPFKPVISPAFDFYGTLEDGLRANLAPTQSTWDQWGEGWIPDDCKWYAEYYGYAANEFEVFNVKYTDCDEAWIMCRHKQATVSQTGMIDLFGRLPLGMREYVKHVVMAPETKANTVASSYRGTIAFDQDYFSIYNLVHETGHCMDGTAALDVFPDGISSSSIWQDNYNQDSAVVRDYARSSWVENFAETGTVAVYDKVVPGGIGPIQPNWEQIYHQYATYNGYLSDIITPGAKDKCTQRRENSETVAMGASSRIMRSSPPDTSFKSDVKVMPAGANDEFFFEHSRDH
Turning to B2, in series [1], the Relative late peak area (centered, scaled, averaged over 5, 10 and 15 min) is -1.05; the “modification of IFF05588 (reverse phase chromatography, 5 to 15 min)” value was “All samples containing proteins related to IFF05497 except seven (IFF21355, IFF21358, IFF21356, IFF21361, IFF21370, IFF21357 and IFF21353) are able to modify IFF05588 under these reaction conditions”.

B3: IFF21372 (protein)
chain: QNLGKPVLFTDGLSPHVDASFWAHLNPTQSTWDQWGWGWIPQSCFDAANSNNVSPYDFEVFNVHYTDCGTAWVFCRHHSASLSQIDMIDLFGRLPVHERQWIRHVVAVPGGGSAYELNADVVFQGPVGTPSVFQHEVGHAVDFYKNGFQSSGTSQFLNAIQQDSCVPDDYANSNNVEDYTQVGVLSLYEIVNPGGLDPIGANWRCLVNQKNVLDGFQRDNMIPGGVCDRRWADSTIVKMGPAVPRVKRGPVGPIPQPAGLPVPGPSKAGPDVYKNLVFNATEKRNAETRQAAWQKAAKGAEA
As to B3, in series [1], the Relative late peak area (centered, scaled, averaged over 5, 10 and 15 min) was 1.62; the Relative late peak area (centered, scaled, averaged over doses, 24 h; sample diluted 10-fold) came out at 1.18; the Relative late peak area (reverse phase chromatography, 24 h) was 0.6.

B4: IFF21361 (protein)
chain: DLLRPEIDTVFADGLGPLDQPLVDNLPLTSYTLNQWAPGWIPADCKAMIEGQNMSATEMTVWSVAYADCVDPWVMCQHPSAELNLTAMIDLFGRLPVKMRSLVRHLAAIPGRPWAYNSGTTGRISVFAHEVGHSMDYHGYFNDTRGQFSLSSLWLDNFAKDSGVADYYANTDQGENHSQEVVVALFDANVPGGLGSVTGNWSAILHQYATIQGFVGDGGDTLTPGGACSHRHNNSAAVPMTTEDAAQGPPPDVELTGPVHVYAFKPMEPVANATVVKEDGVAAPMVVKVF
As to B4, in series [1], the Relative late peak area (centered, scaled, averaged over 5, 10 and 15 min) was -1.05; the Relative late peak area (centered, scaled, averaged over doses, 24 h; sample diluted 1-fold) was -1.64; the “modification of IFF05588 (reverse phase chromatography, 5 to 15 min)” value was “All samples containing proteins related to IFF05497 except seven (IFF21355, IFF21358, IFF21356, IFF21361, IFF21370, IFF21357 and IFF21353) are able to modify IFF05588 under these reaction conditions”; the “modification of IFF05588 (reverse phase chromatography, 24 h, doses)” value was “All samples containing proteins related to IFF05497 except two (IFF21376 and IFF21361) are able to modify IFF05588 under these reaction conditions. Close comparison of the chromatograms for these two samples show differences between buffer and sample chromatograms indicative of activity in the sampl”.

B5: IFF21358 (protein)
chain: GNPDKPEVNPHIPYDRLENDLRNNLHPTQSTWDYWGAGWIPQGCKDLANTYHLNPADFTIFNVHYTDCSASWTFCRHKNAGASEIDMIDIFGRLPVRMRSYLRHLVATPGLNDGAAAWTWSSGDCVVESAPNLATLVHEVSHSLDWHALPQYQQPFSSSSIWQDNYNQDSATPTGYGRTNWMENFAETGMVGVYDKAVPGGIGNIEPNWNAIFHQYATYQGYLGDKIIAGGSCANRFDDTPPVAMSNSAKFKITSAKPETGIDFAGKNITQIIPSKEFEGLYIKG
Regarding B5, in series [1], the Relative late peak area (centered, scaled, averaged over 5, 10 and 15 min) is -1.04; the Relative late peak area (centered, scaled, averaged over doses, 24 h; sample diluted 1-fold) is -1.46; the “modification of IFF05588 (reverse phase chromatography, 5 to 15 min)” value was “All samples containing proteins related to IFF05497 except seven (IFF21355, IFF21358, IFF21356, IFF21361, IFF21370, IFF21357 and IFF21353) are able to modify IFF05588 under these reaction conditions”. In addition, in series [2], the “Gel mobility change (SDS-PAGE)” value is listed as “yes”.

B6: IFF21366 (protein)
chain: QNLNKPVLFSDGLSPHVDSVFFQHLTPTQSTWDKWGWGWIPQACLSVVQGTQFSPYDIEVYNVHYTDCASAVVMCRHNQAQMSIINMIDAFGRIPIHDRQWTQHILALPAGGCSAGTGGAVTTFYGPCYIPSVFVHELTHTLDAFVNDKTGSTGAVHVYSTTSSYLNSVNQDSCVPDGYANTSPQEDYAQTSVLALYEKVNPGGLDPIGPWRCLVNAKNNLDSIIGQELTPGGSCTHRWADSAIVCMGPAAGCTSSKRGFEGRRGLKPVGPKPNPANKKGDPLVLDLLPDLASVVNAKITDFSHLSSNHTAGIEATIRINAWNKAAGKETVPVPKA
As to B6, in series [1], the Relative late peak area (centered, scaled, averaged over 5, 10 and 15 min) worked out at 0.34; the Relative late peak area (centered, scaled, averaged over doses, 24 h; sample diluted 2-fold) turned out to be 1.02. Besides, the “Gel mobility change (SDS-PAGE)” value in series [2] is “yes”.

B7: IFF21347 (protein)
chain: KLDKPVIQPNFPGGGLASLGQGLLDNLKPTQSTSDVWGAGWIPADCKSLVQGAGLSPNDITPFNIHYTDCSQTWTFCRHKDSPLSQTDIIDLFGRVPVRMRDYIRHYVFIPGNKSAGSSGDNTLMVGDVDITVFLHEIGHSLDSHAFDPSYGVPFSTGNVWISNYNQDSAVTDDYAQSSQQENFAQETVVSVYDKNVPGGIGNIQPNWQAIFHQYATLEGYIGDTIIPGGTCVNRLTDSQPVTMSNSAKFRRNLGPKPTVSLSPDVKEIKAIPMADSIKMTSFDEHGKPNGTYVIQL
Consider B7, for which, in series [1], the Relative late peak area (centered, scaled, averaged over 5, 10 and 15 min) was 1.74; the Relative late peak area (centered, scaled, averaged over doses, 24 h; sample diluted 10-fold) was 1.14; the Relative late peak area (reverse phase chromatography, 24 h) was 0.59.

B8: IFF21346 (protein)
chain: NLDKPVIQPNFPGGGLASLGQGLLDNLKPTQSTSDVWGAGWIPADCKSLVQGAGLSPNDITPFNIHYTDCSQTWTFCRHKDSPLSQTDIIDLFGRVPVRMRDYIRHYVFIPGNKSAGSSGDNTLMVGDVDITVFLHEIGHSLDSHAFDPSYGVPFSTGNVWISNYNQDSAVTDSYAQSSQQENFAQETVVSVYDKNVPGGIGNIQPNWQAIFHQYATLEGYIGDTIIPGGTCVNRLTDSQPVTMSNSAKFRRTLGPKPTVSLSPDVKEIKPIPMADSIKMTSFDEHGKPNGTYVINL
In series [1], B8 had a Relative late peak area (centered, scaled, averaged over 5, 10 and 15 min) of 0.52; a Relative late peak area (centered, scaled, averaged over doses, 24 h; sample diluted 2-fold) of 1.07.

B9: IFF21344 (protein)
chain: KLDKPIIQPNFPGGGLASLGQGLLNNLSPTQSTSDNWGAGWIPADCKSLVQGAGLSPFDVTPFNIHYTDCSQTWTFCRHKDSPLSQTDIIDLFGRVPVRMRDFIRHYVFIPGATSAGSSGDNTLMVGNVDITVFLHEIGHSLDSHAFDPSYGVPFSTSNVWISNYNLDSAVTDSYAQTSQQENFAQETVVSVYDKVVPGGIGTIQPNWQAIFHQYATLQGYIGNTIIPGGTCVNRLTDSQPVTMGNSAKFRRGLGPKPTVSLSPDVKEIKPIPMSDSITMTTFDEFGKANGTYVIHL
As for B9, in series [1], the Relative late peak area (centered, scaled, averaged over 5, 10 and 15 min) turned out to be 1.36; the Relative late peak area (centered, scaled, averaged over doses, 24 h; sample diluted 10-fold) worked out at 0.79. Besides, the “Gel mobility change (SDS-PAGE)” value in series [2] is “yes”.

B10: IFF21345 (protein)
chain: KLDKPIIQPNFPGGGLASLGQGLLNNLSPTQSTSDNWGAGWIPADCKSLVQGAGLSPFDVTPFNIHYTDCSQTWTFCRHKDSPLSQTDIIDLFGRVPVRMRDFIRHYVFIPGATSAGSSGDNTLMVGNVDITVFLHEIGHSLDSHAFDPSYGAPFSNSNIWISNYNLDSAVTDSYAQTSQQENFAQETVVSVYDKVVPGGIGTIQPNWQAIFHQYATLQGYIGDTIIPGGTCVNRLTDSQPVTMGNSAKFRRGLGPKPTVSLSPDVKEIKPIPMSDSITMTTFDEFGKANGTYVIHL
Regarding B10, in series [1], the Relative late peak area (centered, scaled, averaged over 5, 10 and 15 min) is 1.82; the Relative late peak area (centered, scaled, averaged over doses, 24 h; sample diluted 10-fold) is 1.24.
